T1: Shh receptor molecules on C3H10T1/2 cells (UniProt Q61115 1-1434)
T1 sequence (looked up): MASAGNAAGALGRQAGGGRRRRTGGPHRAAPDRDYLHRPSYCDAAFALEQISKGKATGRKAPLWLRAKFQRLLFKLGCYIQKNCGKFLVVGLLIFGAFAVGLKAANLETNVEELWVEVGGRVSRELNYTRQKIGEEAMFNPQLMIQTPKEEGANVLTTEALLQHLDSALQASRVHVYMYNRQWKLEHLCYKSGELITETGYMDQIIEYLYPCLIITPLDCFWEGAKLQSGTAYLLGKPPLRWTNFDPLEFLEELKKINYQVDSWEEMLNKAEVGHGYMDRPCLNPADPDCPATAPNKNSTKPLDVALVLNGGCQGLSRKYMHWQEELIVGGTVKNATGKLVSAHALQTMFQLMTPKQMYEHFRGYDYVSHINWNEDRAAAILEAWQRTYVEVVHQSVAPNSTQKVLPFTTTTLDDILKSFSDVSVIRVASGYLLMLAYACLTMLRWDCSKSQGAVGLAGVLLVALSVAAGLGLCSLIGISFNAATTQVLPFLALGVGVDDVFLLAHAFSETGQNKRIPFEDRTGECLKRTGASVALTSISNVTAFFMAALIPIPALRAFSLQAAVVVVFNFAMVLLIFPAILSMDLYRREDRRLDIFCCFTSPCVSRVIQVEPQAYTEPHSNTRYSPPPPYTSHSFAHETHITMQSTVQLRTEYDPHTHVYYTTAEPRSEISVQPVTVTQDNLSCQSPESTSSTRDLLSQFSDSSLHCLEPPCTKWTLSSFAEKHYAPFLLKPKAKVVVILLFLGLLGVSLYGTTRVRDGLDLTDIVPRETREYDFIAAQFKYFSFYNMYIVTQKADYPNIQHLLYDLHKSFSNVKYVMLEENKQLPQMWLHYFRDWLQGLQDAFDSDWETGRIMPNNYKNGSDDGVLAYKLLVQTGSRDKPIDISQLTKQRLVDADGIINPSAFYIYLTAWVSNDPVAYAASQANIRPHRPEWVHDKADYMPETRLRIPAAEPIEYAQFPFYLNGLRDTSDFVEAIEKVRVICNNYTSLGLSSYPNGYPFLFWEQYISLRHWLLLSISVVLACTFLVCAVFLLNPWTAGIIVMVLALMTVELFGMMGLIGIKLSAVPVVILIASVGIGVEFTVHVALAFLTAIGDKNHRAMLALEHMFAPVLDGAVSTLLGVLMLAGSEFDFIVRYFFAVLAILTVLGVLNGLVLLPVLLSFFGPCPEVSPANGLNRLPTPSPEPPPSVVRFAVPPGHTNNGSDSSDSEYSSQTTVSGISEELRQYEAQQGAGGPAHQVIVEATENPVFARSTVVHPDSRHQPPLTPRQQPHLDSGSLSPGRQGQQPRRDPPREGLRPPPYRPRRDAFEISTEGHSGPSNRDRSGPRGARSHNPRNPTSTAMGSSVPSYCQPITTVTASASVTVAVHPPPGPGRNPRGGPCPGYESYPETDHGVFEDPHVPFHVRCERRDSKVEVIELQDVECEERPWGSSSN


What follows are binders tested against T1, Shh receptor molecules on C3H10T1/2 … (assay: cell-based or functional assay).

Row | Potency (IC50) in C3H10T1/2 assay (alkaline phosphatase induction) [µg/mL] | Binder
1 | > 20 | mutant 21 (Shh C1II/A169C + N92C), 5 K PEG (ligand, 5 K PEG maleimide on thiol of Cys92, Cys169) not shown
2 | 3 | mutant 22 (Shh C1II/A169C + S154C), Pyrene-modified (ligand, N-(1-pyrenyl) maleimide on thiol of Cys154, Cys169) not shown
3 | 0.6 | mutant 25 (Shh C1II/A169C + S133C), Napth-modified (ligand, N-(1-naphthyl) maleimide on thiol of Cys133, Cys169) not shown
4 | 0.4 | mutant 20 (Shh C1II/A169C + N68C), 20 K PEG (ligand, 20 K PEG maleimide on thiol of Cys68, Cys169) not shown
5 | 3 | mutant 17 (Shh C1II/A169C + N27C), Pyrene-modified (ligand, N-(1-pyrenyl) maleimide on thiol of Cys27, Cys169) not shown
6 | 2 | mutant 21 (Shh C1II/A169C + N92C), HPE-modified (ligand, beta-(4-hydroxyphenyl) ethylmaleimide on thiol of Cys92, Cys169) not shown
7 | 0.4 | mutant 25 (Shh C1II/A169C + S133C), unmodified (ligand) not shown
8 | 0.3 | mutant 18 (Shh C1II/A169C + N46C), 20 K PEG (ligand, 20 K PEG maleimide on thiol of Cys46, Cys169) not shown
9 | 0.2 | mutant 24 (Shh C1II/A169C + S112C), NEM-modified (ligand, N-ethyl maleimide on thiol of Cys112, Cys169) not shown
10 | 0.2 | mutant 25 (Shh C1II/A169C + S133C), HPE-modified (ligand, beta-(4-hydroxyphenyl) ethylmaleimide on thiol of Cys133, Cys169) not shown
11 | 2 | mutant 25 (Shh C1II/A169C + S133C), 5 K PEG (ligand, 5 K PEG maleimide on thiol of Cys133, Cys169) not shown
12 | 8 | mutant 17 (Shh C1II/A169C + N27C), 20 K PEG (ligand, 20 K PEG maleimide on thiol of Cys27, Cys169) not shown
13 | 0.2 | mutant 19 (Shh C1II/A169C + Y57C), 5 K PEG (ligand, 5 K PEG maleimide on thiol of Cys57, Cys169) not shown
14 | 0.4 | mutant 17 (Shh C1II/A169C + N27C), unmodified (ligand) not shown
15 | 1.5 | mutant 17 (Shh C1II/A169C + N27C), Napth-modified (ligand, N-(1-naphthyl) maleimide on thiol of Cys27, Cys169) not shown
16 | 0.2 | mutant 19 (Shh C1II/A169C + Y57C), unmodified (ligand) not shown
17 | 0.3 | mutant 24 (Shh C1II/A169C + S112C), Napth-modified (ligand, N-(1-naphthyl) maleimide on thiol of Cys112, Cys169) not shown
18 | 0.5 | mutant 18 (Shh C1II/A169C + N46C), Pyrene-modified (ligand, N-(1-pyrenyl) maleimide on thiol of Cys46, Cys169) not shown
19 | 0.2 | mutant 25 (Shh C1II/A169C + S133C), NEM-modified (ligand, N-ethyl maleimide on thiol of Cys133, Cys169) not shown

Row | Potency (IC50) in C3H10T1/2 assay (alkaline phosphatase induction) [µg/mL] | Binder
20 | 0.5 | mutant 17 (Shh C1II/A169C + N27C), HPE-modified (ligand, beta-(4-hydroxyphenyl) ethylmaleimide on thiol of Cys27, Cys169) not shown
21 | 1 | mutant 22 (Shh C1II/A169C + S154C), unmodified (ligand) not shown
22 | 3 | mutant 25 (Shh C1II/A169C + S133C), Pyrene-modified (ligand, N-(1-pyrenyl) maleimide on thiol of Cys133, Cys169) not shown
23 | 2 | mutant 25 (Shh C1II/A169C + S133C), 20 K PEG (ligand, 20 K PEG maleimide on thiol of Cys133, Cys169) not shown
24 | 0.2 | mutant 20 (Shh C1II/A169C + N68C), HPE-modified (ligand, beta-(4-hydroxyphenyl) ethylmaleimide on thiol of Cys68, Cys169) not shown
25 | 0.4 | mutant 18 (Shh C1II/A169C + N46C), HPE-modified (ligand, beta-(4-hydroxyphenyl) ethylmaleimide on thiol of Cys46, Cys169) not shown
26 | 8 | mutant 22 (Shh C1II/A169C + S154C), 20 K PEG (ligand, 20 K PEG maleimide on thiol of Cys154, Cys169) not shown
27 | 0.3 | mutant 20 (Shh C1II/A169C + N68C), Pyrene-modified (ligand, N-(1-pyrenyl) maleimide on thiol of Cys68, Cys169) not shown
28 | 0.6 | mutant 24 (Shh C1II/A169C + S112C), 5 K PEG (ligand, 5 K PEG maleimide on thiol of Cys112, Cys169) not shown
29 | 0.25 | mutant 24 (Shh C1II/A169C + S112C), Pyrene-modified (ligand, N-(1-pyrenyl) maleimide on thiol of Cys112, Cys169) not shown
30 | 3 | mutant 21 (Shh C1II/A169C + N92C), Pyrene-modified (ligand, N-(1-pyrenyl) maleimide on thiol of Cys92, Cys169) not shown
31 | 2 | mutant 22 (Shh C1II/A169C + S154C), HPE-modified (ligand, beta-(4-hydroxyphenyl) ethylmaleimide on thiol of Cys154, Cys169) not shown
32 | 0.3 | mutant 20 (Shh C1II/A169C + N68C), Napth-modified (ligand, N-(1-naphthyl) maleimide on thiol of Cys68, Cys169) not shown
33 | 0.3 | mutant 19 (Shh C1II/A169C + Y57C), Pyrene-modified (ligand, N-(1-pyrenyl) maleimide on thiol of Cys57, Cys169) not shown
34 | 0.4 | mutant 24 (Shh C1II/A169C + S112C), unmodified (ligand) not shown
35 | 0.2 | mutant 20 (Shh C1II/A169C + N68C), 5 K PEG (ligand, 5 K PEG maleimide on thiol of Cys68, Cys169) not shown
36 | 0.2 | mutant 18 (Shh C1II/A169C + N46C), NEM-modified (ligand, N-ethyl maleimide on thiol of Cys46, Cys169) not shown
37 | 0.3 | mutant 20 (Shh C1II/A169C + N68C), unmodified (ligand) not shown
38 | > 20 | mutant 21 (Shh C1II/A169C + N92C), 20 K PEG (ligand, 20 K PEG maleimide on thiol of Cys92, Cys169) not shown

Row | Potency (IC50) in C3H10T1/2 assay (alkaline phosphatase induction) [µg/mL] | Binder
39 | 0.2 | mutant 20 (Shh C1II/A169C + N68C), NEM-modified (ligand, N-ethyl maleimide on thiol of Cys68, Cys169) not shown
40 | 2 | mutant 22 (Shh C1II/A169C + S154C), NEM-modified (ligand, N-ethyl maleimide on thiol of Cys154, Cys169) not shown
41 | 4 | mutant 17 (Shh C1II/A169C + N27C), 5 K PEG (ligand, 5 K PEG maleimide on thiol of Cys27, Cys169) not shown
42 | 4 | mutant 21 (Shh C1II/A169C + N92C), Napth-modified (ligand, N-(1-naphthyl) maleimide on thiol of Cys92, Cys169) not shown
43 | 0.3 | mutant 17 (Shh C1II/A169C + N27C), NEM-modified (ligand, N-ethyl maleimide on thiol of Cys27, Cys169) not shown
44 | 0.2 | mutant 23 (Shh C1II/A169C + K82C), unmodified (ligand) not shown
45 | 2 | mutant 22 (Shh C1II/A169C + S154C), Napth-modified (ligand, N-(1-naphthyl) maleimide on thiol of Cys154, Cys169) not shown
46 | 0.2 | mutant 24 (Shh C1II/A169C + S112C), HPE-modified (ligand, beta-(4-hydroxyphenyl) ethylmaleimide on thiol of Cys112, Cys169) not shown
47 | 0.4 | mutant 18 (Shh C1II/A169C + N46C), Napth-modified (ligand, N-(1-naphthyl) maleimide on thiol of Cys46, Cys169) not shown
48 | 0.4 | mutant 18 (Shh C1II/A169C + N46C), unmodified (ligand) not shown
49 | 0.2 | mutant 19 (Shh C1II/A169C + Y57C), Napth-modified (ligand, N-(1-naphthyl) maleimide on thiol of Cys57, Cys169) not shown
50 | 1.5 | mutant 21 (Shh C1II/A169C + N92C), unmodified (ligand) not shown
51 | 0.3 | mutant 19 (Shh C1II/A169C + Y57C), HPE-modified (ligand, beta-(4-hydroxyphenyl) ethylmaleimide on thiol of Cys57, Cys169) not shown
52 | 0.3 | mutant 19 (Shh C1II/A169C + Y57C), 20 K PEG (ligand, 20 K PEG maleimide on thiol of Cys57, Cys169) not shown
53 | 0.2 | mutant 19 (Shh C1II/A169C + Y57C), NEM-modified (ligand, N-ethyl maleimide on thiol of Cys57, Cys169) not shown
54 | 2 | mutant 24 (Shh C1II/A169C + S112C), 20 K PEG (ligand, 20 K PEG maleimide on thiol of Cys112, Cys169) not shown
55 | 5 | mutant 22 (Shh C1II/A169C + S154C), 5 K PEG (ligand, 5 K PEG maleimide on thiol of Cys154, Cys169) not shown
56 | 2 | mutant 21 (Shh C1II/A169C + N92C), NEM-modified (ligand, N-ethyl maleimide on thiol of Cys92, Cys169) not shown
57 | 0.3 | mutant 18 (Shh C1II/A169C + N46C), 5 K PEG (ligand, 5 K PEG maleimide on thiol of Cys46, Cys169) not shown

Source: patent publication US20040038876A1 (published 2004)
